Measured values reported in US20080241126A1 (XOMA TECHNOLOGY, published 2008).

Columns and labels:
[1] = molecular target: T1, Ep-CAM on the surface of HT-29 human colorectal carcinoma cells (human, UniProt P16422 24-314); experiment: competition with 125I-labeled chimeric ING-1 on HT-29 cells
T1 construct: The gene was obtained from HT-29 mRNA; also called epithelial cell adhesion molecule; Ep-CAM expressing HT-29 cells
T1 sequence: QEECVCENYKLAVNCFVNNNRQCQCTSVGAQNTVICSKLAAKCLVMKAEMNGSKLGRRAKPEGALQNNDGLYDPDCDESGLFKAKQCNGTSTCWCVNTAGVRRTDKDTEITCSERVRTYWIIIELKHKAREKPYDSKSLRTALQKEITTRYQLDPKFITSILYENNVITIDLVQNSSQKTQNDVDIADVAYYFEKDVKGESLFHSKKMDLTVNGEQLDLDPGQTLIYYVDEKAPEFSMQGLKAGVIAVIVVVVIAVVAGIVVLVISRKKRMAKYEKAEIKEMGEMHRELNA
Source text: Vectors constructed according to Example 1 encoding human engineered ING-1 light and heavy chain genes, for example, pING1937 (low risk human engineered ING-1) and pING1944 (low plus moderate risk human engineered ING-1) were linearized by XbaI and used to transfect serum-free adapted CHO-K1 followed by selection of G418-resistant transfectants. Protein was purified from shake flask culture supernatants by passage over a protein A column. To evaluate the binding activity of the produced immunoglobulin polypeptides, competition binding assays with the human carcinoma cell line HT-29 were performed. This colorectal carcinoma cell line expresses a molecule known as Ep-CAM on its surface. Ep-CAM is recognized by immunoglobulin polypeptides having the antigen binding specificity of the mouse-human chimeric ING-1 antibody produced by cell line HB9812 as produced by ATCC.
HT-29 cells were grown to confluency (˜2×10⁵ cells/well) in 96 well plates. Mouse-human chimeric ING-1 was labeled with Na¹²⁵I (Iodo-gen®, Pierce). The competition conditions included in a 100 μl assay volume, 0.1 nM labeled mouse-human chimeric ING-1, 2-fold serial dilutions of unlabeled immunoglobulin polypeptides, for example, as produced by cells transfected with pING1937 and pING1944. […] Labeled cells were removed with NaOH and counted. […]

soluble human Ep-CAM = molecular target: T2, soluble human Ep-CAM (human, UniProt P16422 24-265); experiment: ELISA, soluble Ep-CAM coated at 0.25 ug/mL, detection with AP-goat anti-human IgG
T2 construct: It was truncated by a stop codon at amino acid position 266 and secreted from CHO-K1 cells (pING1954, Clone 51); No signal peptide limits are stated; Multimers were seen on a non-reduced gel; also called sEp-CAM; truncated Ep-CAM
T2 sequence: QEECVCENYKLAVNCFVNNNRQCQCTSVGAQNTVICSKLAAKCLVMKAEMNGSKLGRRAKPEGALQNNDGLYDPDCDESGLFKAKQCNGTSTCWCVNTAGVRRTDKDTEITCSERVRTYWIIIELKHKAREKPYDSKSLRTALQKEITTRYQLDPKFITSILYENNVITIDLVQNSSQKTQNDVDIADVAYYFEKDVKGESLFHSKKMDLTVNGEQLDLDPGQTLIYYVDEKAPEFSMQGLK

[2] = molecular target: T1, Ep-CAM on the surface of HT-29 human …; experiment: competition binding on HT-29 cells (FIG. 16)
Description: HT-29 cells were grown to confluency (˜2×10⁵ cells/well) in 96 well plates. Mouse-human chimeric ING-1 was labeled with Na¹²⁵I (Iodo-gen®, Pierce). The competition conditions included in a 100 μl assay volume, 0.1 nM labeled mouse-human chimeric ING-1, 2-fold serial dilutions of unlabeled immunoglobulin polypeptides, for example, as produced by cells transfected with pING1937 and pING1944. The labeled and unlabeled immunoglobulin polypeptides were incubated with HT-29 cells at 4° C. for 5 hours followed by washing. Labeled cells were removed with NaOH and counted. Data analysis was performed using Ligand, [Munson and Redbard, […] 107: 220-239 (1980)].
Human engineered ING-1 modified at the low risk plus moderate risk positions was also evaluated using competition binding assays. No differences in binding between the mouse-human chimeric and the human engineered (low risk) ING-1 was observed.

[3] = molecular target: T1, Ep-CAM on the surface of HT-29 human …; experiment: competition with iodinated low risk ING-1 on HT-29 cells (FIG. 17)

B1: human engineered (low risk) ING-1 (antibody, human IgG1, kappa)
VL: DIVMTQSALSNPVTLGESGSISCRSSKSLLHSNGITYLYWYLQKPGQSPQLLIYQMSNRASGVPDRFSSSGSGTDFTLKISRVEAEDVGVYYCAQNLELPRTFGQGTKLEMKRTVAAPSVFIFPPSDEQLKSGTASVVCLLNNFYPREAKVQWKVDNALQSGNSQESVTEQDSKDSTYSLSSTLTLSKADYEKHKVYACEVTHQGLSSPVTKSFNRGEC
VH: not shown
notes: It has 6 low risk changes in VL and 13 in VH; also called human engineered ING-1; ING-1(heMab)
**Q.** Does B1 bind [1]?
**A.** Result: binds

**Q.** Does B1 bind (soluble human Ep-CAM)?
**A.** Result: binds

B2: human engineered (low plus moderate risk) ING-1 (antibody, human IgG1, kappa)
VL: DIVMTQSPLSLPVTPGEPGSISCRSSKSLLHSNGITYLYWYLQKPGQSPQLLIYQMSNRASGVPDRFSSSGSGTDFTLKISRVEAEDVGVYYCAQNLELPRTFGQGTKLEMKRTVAAPSVFIFPPSDEQLKSGTASVVCLLNNFYPREAKVQWKVDNALQSGNSQESVTEQDSKDSTYSLSSTLTLSKADYEKHKVYACEVTHQGLSSPVTKSFNRGEC
VH: not shown
notes: IgG with human kappa and gamma-1 constant regions, built like pING1937; It has 10 low plus moderate risk changes in VL and 20 in VH; also called product of pING1944
**Q.** Does B2 bind [2]?
**A.** Result: binds

B3: modified ING-1 with low plus moderate risk light chain and low risk heavy chain (antibody, human IgG1, kappa)
VL: DIVMTQSPLSLPVTPGEPGSISCRSSKSLLHSNGITYLYWYLQKPGQSPQLLIYQMSNRASGVPDRFSSSGSGTDFTLKISRVEAEDVGVYYCAQNLELPRTFGQGTKLEMKRTVAAPSVFIFPPSDEQLKSGTASVVCLLNNFYPREAKVQWKVDNALQSGNSQESVTEQDSKDSTYSLSSTLTLSKADYEKHKVYACEVTHQGLSSPVTKSFNRGEC
VH: not shown
notes: It is an IgG purified on protein A with human kappa and gamma-1 constant regions; also called low risk heavy chain with a low plus moderate risk light chain
**Q.** Does B3 bind [3]?
**A.** Result: binds

B4: modified ING-1 with low risk light chain and low plus moderate risk heavy chain (antibody, human IgG1, kappa)
VL: DIVMTQSALSNPVTLGESGSISCRSSKSLLHSNGITYLYWYLQKPGQSPQLLIYQMSNRASGVPDRFSSSGSGTDFTLKISRVEAEDVGVYYCAQNLELPRTFGQGTKLEMKRTVAAPSVFIFPPSDEQLKSGTASVVCLLNNFYPREAKVQWKVDNALQSGNSQESVTEQDSKDSTYSLSSTLTLSKADYEKHKVYACEVTHQGLSSPVTKSFNRGEC
VH: not shown
notes: It is an IgG purified on protein A with human kappa and gamma-1 constant regions; also called combination of a low risk light chain with a low plus moderate risk heavy chain
**Q.** Does B4 bind [3]?
**A.** Result: binds

B5: mouse-human chimeric ING-1 antibody (as produced by cell line HB9812, ATCC) (antibody, human IgG1, kappa, V domains shown)
VH: QIQLVQSGPELKKPGETVKISCKASGYTFTKYGMNWVKQAPGKGLKWMGWINTYTEEPTYGDDFKGRFAFSLETSASTANLQINNLKSEDTATYFCARFGSAVDYWGQGTSVTVSS
VL: DIVMTQAAFSNPVTLGTSGSISCRSSKSLLHSNGITYLYWYLQKPGQSPQLLIYQMSNLASGVPDRFSSSGSGTDFTLRISRVEAEDVGVYYCAQNLELPRTFGGGTKLEMKR
notes: The labelled tracer form was iodinated with Na125I
**Q.** Does B5 bind [1]?
**A.** Result: binds
